Experiment: soluble on expression in E. coli; label from the status in PepcDB or PDB records

Question: Which “soluble on expression in E. coli” value does the source give for “MSSDRIVITGVAINTPIGDTLDLVGNNLLSGKSAIGYWRNFDTSNIYSKIGGQIPEYDIEGKLHAFSNRIPDIVLSRAEKVFKQTTKGVQLSVLMAMEAWLDAGLFEHIIDPFDCGIICGGHNLSDKYLLDQQKIFSDEPEFIDAFSGLNSLDTDHSSSVAQVLNTKGFAYLVGGTCATGNIAIQTAINAIKVDKKQVVAVVCPMASFHPMMLHSLTILEAICYSQYQDTPTKASRPYDINRSGFLPSEGGAVLIFEQAEHAKNRGAKIYAELLGASVNSDANHLGDPSHEGQVRVIQDVLKKCNISPEQVDYVSAHATSTKLGDIVELKSIKRVFGSHAEKLIINAPKSLLGHTMWASGVVEAAIAIWQMRQGEFHQSHNIETLDPAVELNVCASGNVKKEVNIFLNNSFGMGGINSASLFSRYHG” here?
Answer: The value was “not soluble”.

Question: For “MSSEAVDATTLVIIPTYNELENLPLIVDRVRTATPDVHVLIVDDNSPDGTGERADKLAADDDHIFVLHREGKGGLCAAYMAGFQWGLERDYQVLCEMDADGSHAPEQLHLLLAEITNGADLVIGSRYVPGGRVVNWPKNRWLLSKGGNVYISVALGAGLTDMTAGYRAFRREVLEALPLDELSNAGYIFQVEIAYRAVEAGFDVREVPITFTEREIGESKLDGSFVKDSLLEVTKWGLKHRGGQAKELSKEMVGLLNYEWKHFKKRNTWLLEHHHHHH”, which “soluble on expression in E. coli” value is on record?
Answer: The value was “not soluble”.

Question: Which “soluble on expression in E. coli” value does the source give for “MSSEELEQVWSNIKSEARALAECEPMLASFFHATLLKHENLGSALSYILANKLANPIMPAIAIREVVEEAYRSDAHMIVSAARDILAVRLRDPAVDKYSTPLLYLKGFHALQAYRIGHWLWAQDRKALAIYLQNQVSVAFGVDIHPAATIGCGIMLDHATGIVIGETAVVENDVSILQSVTLGGTGKTSGDRHPKIREGVMIGAGAKILGNIEVGRGAKIGAGSVVLQSVPAHTTAAGVPARIVGKPESDKPSLDMDQHFNGSIQGFEYGDGI” here?
Answer: Its value is “not soluble”.

Question: With “MSSENDFVEFSSMFERIIQGRGDGLSRFLPVIVALAAREDDDDQGSTDQTTRRGDPLSPRFVMIGSRSGLDDFFSDGGKQGRSPALKSEVENMPRVVIGEDKEKYGGSCAICLDEWSKGDVAAEMPCKHKFHSKCVEEWLGRHATCPMCRYEMPVEEVEEEKKIGIWIGFSINAGDRRN” as the sequence, how does the “soluble on expression in E. coli” value read?
Answer: The value was “not soluble”.

Question: With “MSSHPLSISSLSPSYSHRPPGAEQHTVVAGRTSKSAREQCVQGQMVIMQPIRAFVDQHFRAFCQSVELYTISYFQMVPMNPELMHYPNQPHMMPGYPMINAYQQSYLQNPAQWTPEMLLCMQMQMQQMVPGTATNSTYMPPQSKNTVTPNATSPLSQISDRDSGNDTISPPLTSQNRYVFLLRGKKKSCAMFECLGGLYFMVQFVSRNT” as the sequence, how does the “soluble on expression in E. coli” value read?
Answer: The value was “not soluble”.

Question: With “MSSIRYRRPPIIERRYERTPSYSTIPRDIHVSFYHNNYHRSKILYLNKFNAMEKLIEAAHELYPSNGVYRLFSDSTIGAQNELNDSVQVMECVQNPDHILPHLHIRLEDYRPRSISRNYHEVNVPIIRTPSQHSIHQSVRFNDNKRHHHHHHHDSIRNFVHHDTPCRNCFRIIVGSRYHCLQCPDYDICGDCEKDLVHYEHALLRIVTPRVTSIPDYVTVNAPSYIFPEHRYDIKREHYHWF” as the sequence, how does the “soluble on expression in E. coli” value read?
Answer: The value was “not soluble”.

Question: Which “soluble on expression in E. coli” value does the source give for “MSSIVEHVVLFKLNDDDVDSGKINSMVNGINELVNLDQVLHLYCGSIHRLITTTASDFTHVLHSRYRSKEDLNAYAIHPDHVRVVKESESIREDIMAVDWIAEQAPEALAPPLGSIGKITLLKLKENVMEEAKLEIMEVMKEKFEGIDQITVGENFSPGRSKDFSIGSISYFRDLGEIEAVDDQMKLQNDKIRDYVDDTIVVEFNVPSSS” here?
Answer: Its value is “soluble”.

Question: For “MSSLGASFVQIKFDDLQFFENCGGGSFGSVYRAKWISQDKEVAVKKLLKIEKEAEILSVLSHRNIIQFYGVILEPPNYGIVTEYASLGSLYDYINSNRSEEMDMDHIMTWATDVAKGMHYLHMEAPVKVIHRDLKSRNVVIAADGVLKICDFGASRFHNHTTHMSLVGTFPWMAPEVIQSLPVSETCDTYSYGVVLWEMLTREVPFKGLEGLQVAWLVVEKNERLTIPSSCPRSFAELLHQCWEADAKKRPSFKQIISILESMSNDTSLPDKCNSFLHNKAEWRCEIEATLERLKKLERDLSFKEQELKERERRLKMWEQKLTEQSNTPLLLPLAARMSEESYFESKTEESNSAEMSCQITATSNGEGHGMNPSLQAMMLMGFGDIFSMNKAGAVMHSGMQINMQAKQNSSKTTSKRRGKKVNMALGFSDFDLSEGDDDDDDDGEEEDNDMDNSE”, which “soluble on expression in E. coli” value is on record?
Answer: The value was “soluble”.

Question: With “MSSLHKSRIADFQDVLKEPSIALEKLRELSFSGIPCEGGLRCLCWKILLNYLPLERASWTSILAKQRELYAQFLREMIIQPGIAKANMGVSREDVTFEDHPLNPNPDSRWNTYFKDNEVLLQIDKDVRRLCPDISFFQRATDYPCLLILDPQNEFETLRKRVEQTTLKSQTVARNRSGVTNQEQNIKPQFFAFRWLTLLLSQEFLLPDVTRIWDSLFADDNRFDFLLLVCCAMLMLIREQLLEGDFTVNMRLLQDYPITDVCQILQKAKELQDSK” as the sequence, how does the “soluble on expression in E. coli” value read?
Answer: Its value is “soluble”.

Question: With “MSSLPETLMNRLHDHERLTQNEGEALYDLDLFTLGREADRRRVKKHGKKVFFNSNRHINPTNICQDICKFCAFSSHRKNPNPYAMSIDEILEIAKESTALGARELHVVSAHNPNYGYQWYGEMFKTIKEALPHIHLKAMTAAEVDFLSRRFEKPYEQVLEDMLLWGVDSMPGGGAEIFDEEVRARLCGGKVSSGRWLEIHGYWHSLGKQSNATMLFGHIENRTHRIDHMLRLRELQDRYGGFNAFIPLLYQKENNFLKVERFPTGQEILKTLAISRILLDNIPHIKAYWATLGLNLAMVAQEFGADDLDGTIQKESIQSAAGSGSGHGVSKEELIFQIKDAGFIPVERDSLYNEIQIYA” as the sequence, how does the “soluble on expression in E. coli” value read?
Answer: Its value is “not soluble”.

Question: Which “soluble on expression in E. coli” value does the source give for “MSSNCTSTTAVAVAPLSASKTKTKKKHFVCQKVKLFRASEPILSVLMWGVNHTINELSNVPVPVMLMPDDFKAYSKIKVDNHLFNKENLPSRFKFKEYCPMVFRNLRERFGIDDQDYQNSVTRSAPINSDSQGRCGTRFLTTYDRRFVIKTVSSEDVAEMHNILKKYHQFIVECHGNTLLPQFLGMYRLTVDGVETYMVVTRNVFSHRLTVHRKYDLKGSTVAREASDKEKAKDLPTFKDNDFLNEGQKLHVGEESKKNFLEKLKRDVEFLAQLKIMDYSLLVGIHDVDRAEQEEMEVEERAEDEECENDGVGGNLLCSYGTPPDSPGNLLSFPRFFGPGEFDPSVDVYAMKSHESSPKKEVYFMAIIDILTPYDTKKKAAHAAKTVKHGAGAEISTVNPEQYSKRFNEFMSNILT” here?
Answer: Its value is “soluble”.

Question: Which “soluble on expression in E. coli” value does the source give for “MSSNLQLVETFDSRQFVVARWNRNDTTAMVPSAIAVVVFVESVEYKLGCKEKIGYSPTPEDQDQFMILQMESIDEANRICHDSIAKGFAINNTKIVFTPLLGLNGFRLQDAIDFMKTSQPHFNNDELLEVLTMAICQELPERLKILEDGFSFIEQGVSELIQNSACEMFGSFASPVRRNGYSDIDINVESVSAPGQRVSTNVRPLNEVVANPKCLITHPLTKSELETYPQEEIIKILYRCFNENSAFKTKFEMRFLPARTPIIVFKNIEVEGMNVSYDLSVHNQISVEKASLLHEFIVKDKSKGSRMKNAMMFIVHWAKSNKLLSGDYPEEKLEVKTKLNSYIINQLVIHFVQAATNKVHVNPQAKRDSRVNEYNFDTLFGDYCKFFRELFKYYANFDFTNKAIYGKKAMQKKTLSSAHGGVEESPLMLMDPMDITHNISAKVTEDAVKLLNGLIRNALFILKQNHFHINYLLETNTMATMLMKSREPKISISTRVTDGAEHQYLSVQLPAVVITSSDLFLLLTRVLRFNVCPNEQGPSVVDLCTPTGAIFLVTSRAWVGRRNTKRALKNSRHDLTPLQIDVMCSDKYDYEEDIAELRISMSTVPGTRIRLACIDIMRGQVSEVRDAIHFLIDQFINNNYDDLEKNGVQTISRIPIAAPTWP” here?
Answer: Its value is “not soluble”.

Question: Which “soluble on expression in E. coli” value does the source give for “MSSQDVLIHSDDPCHPANLICTLCKQFFHNNWCTGTGGGISIKDPNTNYYYLAPSGVQKEKMIPEDLFVMDAQTLEYLRSPKLYKPSACTPLFLACYQKKNAGAIIHTHSQNAVICSLLFGDEFRIANIEQIKAIPSGKVDPVTKKPMALSFFDTLKIPIIENMAHEDELIDDLHKTFKDYPDTCAVIVRRHGIFVWGPTIDKAKIFNEAIDYLMELAIKMYQMGIPPDCGIGEEKKHLKMASP” here?
Answer: Its value is “soluble”.

Question: For “MSSRHRLDLDGSGRGDRRRSPNRRSRSRSRSPHRRSSPDRKRQIGAVGNMKIQINPYNNQPFSNRYWAIWEKRSQLPVWEYKEKFMELLRNNQCITLVGETGSGKTTQIPQWAVEFMKQQQQGQPPGQARLVACTQPRRVAAMSVATRVAEEMDVVLGQEVGYSIRFEDCISERTVLKYCTDGMLLREAMNSPLLDKYKVLILDEAHERTLATDILMGLIKEIVRNRADIKVVIMSATLDAGKFQRYFEDCPLLSVPGRTFPVEIFFTPNAEKDYLEAAIRTVIQIHMVEEVEGDILLFLTGQEEIEEACKRIDREIQALGADAGALSCIPLYSTLPPAAQQRIFEPAPPNRPNGAISRKCVISTNIAETSLTIDGVVFVIDPGFSKQKVYNPRIRVESLLVCPISKASAMQRAGRAGRTKPGKCFRLYTETAYGSEMQDQTYPEILRSNLGSVVLQLKKLGTEDLVHFDFMDPPAPETLMRALELLNYLQAINDDGELTELGSLMAEFPLDPQLAKMLITSTELNCSNEILSITAMLSVPQCWVRPNEMRTEADEAKARFAHIDGDHLTLLNVYHSFKQNQEDPQWCYDNFINYRTMKTADTVRTQLSRVMDKYNLRRVSTDFKSRDYYLNIRKALVAGFFMQVAHLERSGHYVTVKDNQLVNLHPSTVLDHKPEWALYNEFVLTTKNFIRTVTDVRPEWLLQIAPQYYDLDNFPDGDTKRKLTTVMQTLQRNAGRGY”, which “soluble on expression in E. coli” value is on record?
Answer: Its value is “soluble”.

Question: With “MSSRLARFALSGYRIAGIAAYPFARPYLSYRAAKGKEDKRRRLERFGYASAERPRGPLVWFHAASVGETLALIPLIREIRKRDIFVLLTTGTVTSAELTRTRLGDDVIHQYVPLDIKIAVNRFLTYWAPDAAITAESEIWPVTMMELERRHIPQIRVNARLSDRSFDRWKARHDIAESLFSKLALVVAQSDLDAERFRDLGSWPVVISGNLKGDTDPPPCDEALLESYRKQVGNRKTWAAISTFDGEEKAAATVHAAIKSRNGQLTIIVPRHPERGDDVEAMLKGMNLSVARRSRNDVITPGTDIFLGDSIGEMGLYLRLTELAFVGRSLTAEGGQNPLEPAMLGCAVLSGAHVQNFREAYQKLIRAGGGRIIRDVEMLAKAVHYLLVNDNERYKMIDAGNRVIQDMRGALSSTVKALEPYINPLTVSAKLQPRSAIGSWLEHHHHHH” as the sequence, how does the “soluble on expression in E. coli” value read?
Answer: The value was “not soluble”.

Question: For “MSSSVLSVAKFDLKKMKTVYLKVDMEYDNRKNAALAILSKLSRDLLKICSNFGGCLARPQRDLCTIMLIIDSDKLENEHLVKHLKEHHMTAFEYIFTKKIKIQIGECFVQDGFLWWKQTNLPRIRNLKFRKKFKIKNKISEIHTHCSSEGNVYIKFSAEMIRIHPFDHWILDSDERFHDFNSGPISRRIRPRWVSCLPKLGKGRIVKIHRKIPETAPFESYDQMKSYWKKTKYEFVFQYGYDLPPSEPEVYYDVLFHNGETMLYPLYCVLTGTPEVLENRVGKTMTSEALALFLKAFKEASIVICGSVLAPEDQDCQAVKAYLDVMSMSAINSSKLKKEEKVTRKSSGGGHEEHQKPYEIRKIYPKIPVGVKRSISSSSQSGLPIVKKARPGFSVSVD”, which “soluble on expression in E. coli” value is on record?
Answer: Its value is “not soluble”.

Question: Which “soluble on expression in E. coli” value does the source give for “MSSVLRLAMRAKGFSRFLAETQAFPVKNRHFMTSSVRKTGDFEYEDPKSEDEVVNITYVLRDGTERKIRGKVGDNVMFLAHRYDIEMEGACEASLACSTCHVYVDPAFQNKLPEPLEEEDDMLDMAPALKDNSRLGCQIVLTKELDGITVTLPTMTRNFYVDGHVPKPH” here?
Answer: The value was “not soluble”.

Question: Which “soluble on expression in E. coli” value does the source give for “MSSVPSAHSEIVGALYRDHRGWLLAWLRRNVACPQRAQDLSQDTFVRLLGRDELQLPREPRAFLATIAKGLMFDYFRRAALEQAYLGELLQVPEAEQPSPEEQLLILEDLKAIDRMLGTLSSKARAAFLYNRLDGLSHGEIAERLGVSVSRVRQYLAQAVRQCYVALYGEPT” here?
Answer: The value was “not soluble”.

Question: With “MSTAFNNIRQGLSEAIAHAKGNVHGVRVHRPRQVDVKAVRAKVGMTQEQFAAQFGFSPATLRHWERGDRTPRGAALVLLNVIDRNPQAVIEALA” as the sequence, how does the “soluble on expression in E. coli” value read?
Answer: Its value is “not soluble”.
